In paper PMC12354777 (Nature Communications, 2025):

Biological target: T1, HR1C peptide of SARS-CoV-2 (residues 937-955), His6-tagged (SARS-CoV-2, UniProt P0DTC2)
T1 chain: SLSSTASALGKLQDVVNQN
Assay: BLI

Binder	binding result
3D1 mutant Y93A (light chain, CDRL3) (antibody, V domains shown) VH: QVQLVQSGSELKKPGASVRISCKASGYSFTSLSMNWVRQAPGQGLEWMGWISTKSGDPTYAQAFTGRFVFSLDTSVNTAYLQINSLEAGDTAVYYCARGQPPVGWTFDYWGQGTLVTVSS VL: QSALTQPPSASGSPGQSVTISCTGTSSDVGGYNYVSWYQQHPGKAPKLIIYEVSKRPSGVPDRFSGSKSGNTASLTVSGLQAEDEADYYCSSATSSSTLVFGGGTKLTVL	no binding
3D1 mutant N35A (heavy chain) (antibody, V domains shown) VH: QVQLVQSGSELKKPGASVRISCKASGYSFTSLSMAWVRQAPGQGLEWMGWISTKSGDPTYAQAFTGRFVFSLDTSVNTAYLQINSLEAGDTAVYYCARGQPPVGWTFDYWGQGTLVTVSS VL: QSALTQPPSASGSPGQSVTISCTGTSSDVGGYNYVSWYQQHPGKAPKLIIYEVSKRPSGVPDRFSGSKSGNTASLTVSGLQAEDEADYYCSSYTSSSTLVFGGGTKLTVL	no binding
3D1 mutant W105A (heavy chain, CDRH3) (antibody, V domains shown) VH: QVQLVQSGSELKKPGASVRISCKASGYSFTSLSMNWVRQAPGQGLEWMGWISTKSGDPTYAQAFTGRFVFSLDTSVNTAYLQINSLEAGDTAVYYCARGQPPVGATFDYWGQGTLVTVSS VL: QSALTQPPSASGSPGQSVTISCTGTSSDVGGYNYVSWYQQHPGKAPKLIIYEVSKRPSGVPDRFSGSKSGNTASLTVSGLQAEDEADYYCSSYTSSSTLVFGGGTKLTVL	no binding
